Experimental findings from patent US20250250357A1 (NANJING ZAIMING PHARMACEUTICAL, published 2025) are described below.

Numbering of substitutions follows the chain as printed.

The chains are these.
B1: S009-F8-28.23 (antibody, human IgG1, kappa, V domains shown)
VH: EVQLVESGGDLVKPGGSLKLSCAASGFTFSSYAMSWVRQTPEKRLEWVATISDGGSYTYYPDNVEGRFTISRDNAKNNLYLQMSHLKSEDTAMYYCAGDRGYSYALDYWGQGTSVTVSS
VL: NIMMTQSPSSLAVSAGEKVTMSCKSSQSVLYSSNQKNYLAWYQQKPGQSPKLLIYWASTRESGVPDRFTGSGSGTDFTLTISSVQAEDLAVYYCHQYLSSLTFGAGTKLELKR
notes: human-murine chimeric antibody, human IgG1/kappa constant regions
B2: S009-F8-8.22 (antibody, human IgG1, kappa, V domains shown)
VH: EVQLQQSGPELVKPGASVKMSCKASGYTFTDYIIHWVKQSHGKSLEWIAYIFPNNGGTGYNQKFRGKATLTVNKSSSTAYMELRSLTSEDSAVYYCARWRLRQYFDVWGTGTTVTVSS
VL: DIVMTQSQKFMSTIVGDRVSITCKASQNVGTAVAWYQQKPGQSPKLLIYSASNRYTGVPDRFTGSGSGTDFTLTISNMQSEDLADYFCQQYSSYPLTFGGGTKLEIKR
notes: as for B1
B3: S009-F8-22.23 (antibody, human IgG1, kappa, V domains shown)
VH: QVQLKQSGPGLVQPSQSLSITCTVSGFSLFSYGVHWVRQSPGKGLEWLGVIWSGGSTDYNAAFISRLSISKDNSKSQVFFKMNSLQADDTAMYYCARNGGSMITTLYYAMDYWGQGTSVTVSS
VL: DVVMTQTPLSLPVSLGDQASISCRSSQSLVHSYGNTYLHWYLQKPGQSPKLLIYKVSNRFSGVPDRFSGSGSGTDFTLKISRVEAEDLGVYFCSQSTHIPFTFGGGTKLEIKR
notes: as for B1
B4: S009-F8-32.3 (antibody, human IgG1, kappa, V domains shown)
VH: QVQLKESGPGLVAPSQSLSITCTVSGFSLSSYAISWVRQPPGKGLEWLGVIWTGGGTNYNSALKSRLSISKDNSKSQVFLKMNSLQTDDTARFYCARNNYGRLDYAMDYWGQGTSVTVSS
VL: B3 VL with S32G, Y33N, A85T, I99V, G105S
notes: as for B1
B5: S009-F8-29.1 (antibody, human IgG1, kappa, V domains shown)
VH: QVQLQQSGAELARPGASVKMSCKASGYTFISYTMHWVKQRPGQGLEWIGYINPSSGYTKYNQKFKDKATLTADKSSSTAYMQLNSLTSEDSAVYYCARYYSNPDYYAMDYWGQGTSVTVSS
VL: QIVLTQSPAIMSASPGEKVTITCSASSSVSYMHWFQQKPGTSPKLWIYSTSNLASGVPARFSGSGSGTSYSLTISRMEAEDAATYYCQQRSSYPLTFGGGTKLELKR
notes: as for B1
B6: S009-F8-33.12 (antibody, human IgG1, kappa, V domains shown)
VH: EVQLQQSGAELVKPGASVKLSCTASAFNIKDYYMHWVKQRTEQGLEWIGRIDPEDGETKYAPKFQGKATITADTSSNTAYLQLSSLTSEDTAVYYCASGSGTGAMDYWGQGTSVTVSS
VL: DIVMTQSQKFMSTSVGDRVSITCKASQNVRTAVGWYQQKPGQSPKALIYLASNRHTGVPDRFTGSGSGTDFTLTISNVQSEDLADYFCLQHWNSPYTFGGGTKLVIKR
notes: as for B1
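Wherever Kd is given: flow cell at 25 °C, antigen injected for 240 s at five concentrations from 200 nM downward, dissociation followed up to 600 s, double-referenced, fitted with Langmuir 1:1 model.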
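Wherever koff is given: flow cell at 25 °C, antigen injected for 240 s at five concentrations from 200 nM downward, dissociation followed up to 600 s, double-referenced, fitted with Langmuir 1:1 model.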
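Wherever kon is given: flow cell at 25 °C, antigen injected for 240 s at five concentrations from 200 nM downward, dissociation followed up to 600 s, double-referenced, fitted with Langmuir 1:1 model.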

T2 sequence (Q13421 other isoform, or with tags, fused parts or gaps): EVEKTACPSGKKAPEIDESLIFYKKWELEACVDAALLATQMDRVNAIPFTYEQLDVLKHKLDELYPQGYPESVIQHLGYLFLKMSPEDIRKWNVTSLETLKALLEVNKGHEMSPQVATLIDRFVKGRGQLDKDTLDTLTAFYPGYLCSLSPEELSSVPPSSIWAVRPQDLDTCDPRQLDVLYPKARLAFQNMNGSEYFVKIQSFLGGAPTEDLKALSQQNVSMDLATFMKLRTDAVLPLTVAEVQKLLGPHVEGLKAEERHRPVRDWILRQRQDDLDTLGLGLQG
T3 sequence (Q13421 other isoform, or with tags, fused parts or gaps): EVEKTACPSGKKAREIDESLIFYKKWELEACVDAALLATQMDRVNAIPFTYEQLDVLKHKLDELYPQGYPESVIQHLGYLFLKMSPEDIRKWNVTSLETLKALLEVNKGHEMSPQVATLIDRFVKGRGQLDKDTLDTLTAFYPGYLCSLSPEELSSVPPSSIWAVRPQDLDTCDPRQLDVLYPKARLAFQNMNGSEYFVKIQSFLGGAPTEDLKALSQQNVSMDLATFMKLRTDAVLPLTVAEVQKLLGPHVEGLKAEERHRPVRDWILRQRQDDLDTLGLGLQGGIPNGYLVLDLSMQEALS

In one assay the target is T1, human MSLN-R3 protein expressed on HEK293T cells (HEK293T-hMSLN-R3) (human, UniProt Q13421 487-606).
T1 construct: C-terminal limit uncertain
T1 sequence (Q13421 495-614): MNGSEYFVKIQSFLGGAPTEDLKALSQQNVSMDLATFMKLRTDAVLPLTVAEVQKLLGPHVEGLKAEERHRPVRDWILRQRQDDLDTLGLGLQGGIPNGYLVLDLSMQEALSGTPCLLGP
Briefly: FACS on HEK293T-hMSLN-R3 cells.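 Further: chimeric antibodies incubated with cells on ice for 2 h, binding read by flow cytometry as mean fluorescence intensity.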
With B1, the “Maximum mean fluorescence intensity” value was determined as 51 and the binding result is “no binding”.

On to B2, for which the “Maximum mean fluorescence intensity” value amounted to 122 and the binding result is recorded as “no binding”.

As for B3, the “Maximum mean fluorescence intensity” value was found to be 404.

As to B4, the “Maximum mean fluorescence intensity” value was 50 and the binding result is listed as “no binding”.

As for B5, the “Maximum mean fluorescence intensity” value is 69 and the binding result is on record as “no binding”.

For B6, the “Maximum mean fluorescence intensity” value turned out to be 64 and the binding result is listed as “no binding”.

A further assay concerns the target T2, human MSLN-FL-his protein (human, UniProt Q13421 296-580).
T2 construct: made in HEK293E cells, purified on nickel column; also called hMSLN-FL-his; human MSLN full-length protein; not shown: His tag
Briefly: competitive ELISA; row Tab142. In general terms: In an ELISA, binding on a coated surface is turned into a signal by an enzyme label.
Take B1: the competition rate turned out to be 9.8%.

As for B2, the competition rate came to 33.8%.

B3: the competition rate is 46.4%.

In the case of B4, the competition rate was found to be 40.6%.

Take B5: the competition rate was 36.8%.

Regarding B6, the competition rate was 47.9%.

The target in another assay is T2, human MSLN-FL-his protein. Kind of assay: SPR (Biacore), antibody captured on Protein A chip. (In general: SPR reads the build-up and loss of mass on a sensor chip optically.)
Protocol: The flow cell was set at 25° C. The sample block was set at 16° C. Both were pretreated with the running buffer. In each cycle, first, the antibody to be tested was captured using the Protein A chip, and then a single concentration of human MSLN-FL-his protein was injected. […] The association was determined by injecting different concentrations of human MSLN-FL-his in solution for 240 s on end, wherein the flow rate was 30 μL/min, and the protein was diluted in a 1:1 dilution ratio from 200 nM (see detailed results for actual concentrations tested) to obtain 5 concentrations in total. The dissociation phase was monitored for up to 600 s and triggered by switching from the sample solution to the running buffer. The surface was regenerated by washing with 10 mM glycine solution (pH 1.5) at a flow rate of 30 μL/min for 30 s. The difference in bulk refractive index was corrected by subtracting the responses obtained from the goat anti-human Fc surface. Blank injections were also subtracted (=double reference). To calculate the apparent KD and other kinetic parameters, the Langmuir 1:1 model was used.
As a reminder, the Kd is the constant that tells how readily two partners part at equilibrium. Broadly, the koff is the first-order rate constant of dissociation. The term kon denotes the second-order rate constant of association. A high value points to fast association. The molecule B1 had a Kd of 44 nM, a koff of 0.00843 s⁻¹ and a kon of 192000 M⁻¹ s⁻¹.

On to B2, for which binding was put at a Kd of 12.8 nM, the dissociation rate constant (koff) is 0.00937 s⁻¹ and the kon is 732000 M⁻¹ s⁻¹.

Take B3: binding was characterised by a dissociation constant (Kd) of 6.35 nM, the off-rate constant (koff) amounted to 0.00275 s⁻¹ and the association rate constant (kon) was 433000 M⁻¹ s⁻¹.

With B4, the Kd was determined as 6.5 nM, the off-rate constant (koff) was 0.00331 s⁻¹ and the kon stood at 510000 M⁻¹ s⁻¹.

Consider B5, for which binding was put at a Kd of 27.4 nM, the koff came to 0.0199 s⁻¹ and the kon was 728000 M⁻¹ s⁻¹.

Regarding B6, the Kd is 5.77 nM, the koff was 0.0361 s⁻¹ and the kon came out at 6.27e+06 M⁻¹ s⁻¹.

In the next assay the target is T2, human MSLN-FL-his protein. Kind of assay: competitive ELISA; row F8-33.12.
Protocol: (§1) In order to identify antigen-binding sites of antibodies, MSLN chimeric antibodies were grouped using competitive ELISA.
(§2) The chimeric antibodies were diluted to 2 μg/mL with PBS and allowed to coat 96-well high-adsorption ELISA plates at 50 μL/well. After the plates were coated at 4° C. overnight, 250 μL of a blocking buffer (PBS containing 2% (w/w) BSA) was added for two hours of blocking at room temperature. 40 μg/mL of the antibodies to be tested were added, and then the human MSLN-FL-His protein with an EC₈₀ concentration corresponding to each of the antibodies to be tested was added for incubation for 2 h. The plates were washed 5 times with PBS, an HRP-labeled anti-His secondary antibody (purchased from Genescript, Cat. No. A00612) was then added for incubation for 1 h, and the plates were washed 5 times again. A TMB substrate was added at 50 μL/well, and after 10 minutes of incubation at room temperature, a stop solution (1.0 M HCl) was added at 50 μL/well. OD₄₅₀ nm values were read using an ELISA plate reader (Insight, purchased from PerkinElmer), and the competition rate between the antibodies was calculated according to the OD₄₅₀ nm values using a formula.
Regarding B1, the competition rate was found to be 10%.

With B2, the competition rate is 53.5%.

With B3, the competition rate worked out at 60.3%.

On to B4, for which the competition rate was 56.5%.

For the molecule B5, the competition rate stood at 47.3%.

With B6, the competition rate stood at 62.8%.

The next assay addresses T3, human MSLN protein endogenously expressed on OVCAR3 tumor cells (human, UniProt Q13421 296-598).
T3 construct: whole, on cells; endogenous expression on a tumor cell line; also called human mesothelin
Briefly: FACS on OVCAR3 cells.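 Further: flow cytometry of chimeric antibody binding to OVCAR3 cells, 2 h on ice, read as cellular mean fluorescence intensity.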
Protocol: The desired cells were expanded to the logarithmic growth phase in a T-75 cell culture flask. […] After the cells from the previous step were subjected to cell counting, the cell pellet was resuspended to 2×10⁶ cells/mL in a blocking buffer of [PBS+2% (w/w) BSA] and added into a 96-well FACS reaction plate at 50 μL/well. A chimeric antibody (a sample to be tested) was added at 50 μL/well, and the plate was incubated on ice for 2 h. […] After the plate was centrifuged and washed 5 times with a PBST buffer, assay and analysis were performed by FACS (FACS CantoII, purchased from BD). Data analysis was performed by software (Flowjo) to obtain the mean fluorescence intensity (MFI) of the cells.
The EC50 is the midpoint of the concentration-response curve. A higher EC50 goes with weaker potency. As to B1, the EC50 worked out at 59.8 nM and the “Maximum mean fluorescence intensity” value was determined as 1290.

For B2, the midpoint of the response, the EC50, lay at 9.9 nM and the “Maximum mean fluorescence intensity” value amounted to 4270.

As for B3, the response was half-maximal at 12.8 nM (EC50) and the “Maximum mean fluorescence intensity” value is 5500.

On to B4, for which the response was half-maximal at 14.7 nM (EC50) and the “Maximum mean fluorescence intensity” value is 8270.

On to B5, for which the EC50 came to 33.4 nM and the “Maximum mean fluorescence intensity” value turned out to be 5430.

For B6, the EC50 stood at 28.4 nM and the “Maximum mean fluorescence intensity” value amounted to 2410.

The target of another assay is T2, human MSLN-FL-his protein. Kind of assay: competitive ELISA; row F8-28.23.
Protocol: as §1, §2
For B1, the competition rate was 73.4%.

In the case of B2, the competition rate stood at 97.4%.

For the molecule B3, the competition rate amounted to 100%.

Take B4: the competition rate was 102%.

Regarding B5, the competition rate turned out to be 96%.

As for B6, the competition rate came out at 102%.

For another assay, the target named is T2, human MSLN-FL-his protein. Kind of assay: competitive ELISA; row F8-29.1.
Protocol: as §1, §2
Regarding B1, the competition rate is 18.8%.

Regarding B2, the competition rate came to 59.2%.

On to B3, for which the competition rate is 70%.

As to B4, the competition rate was found to be 65.9%.

As to B5, the competition rate was 62.2%.

In the case of B6, the competition rate came to 70.6%.

The next assay concerns the target T2, human MSLN-FL-his protein. Briefly: competitive ELISA; row F8-24.14.
Protocol: as §1, §2
Turning to B1, the competition rate amounted to 33.6%.

Turning to B2, the competition rate came to 91.1%.

Take B3: the competition rate came to 92.4%.

Regarding B4, the competition rate turned out to be 95%.

B5: the competition rate was 89.8%.

Regarding B6, the competition rate is 95.5%.

The target of the next assay is T2, human MSLN-FL-his protein. Briefly: competitive ELISA; row F8-36.12.
Protocol: as §1, §2
Turning to B1, the competition rate is -79.5%.

With B2, the competition rate is -138%.

Regarding B3, the competition rate was -156%.

Regarding B4, the competition rate is -164%.

With B5, the competition rate was -146%.

As for B6, the competition rate was -134%.

Another assay deals with T2, human MSLN-FL-his protein. Briefly: competitive ELISA; row Tab021.
Protocol: as §1, §2
Turning to B1, the competition rate was determined as 7.7%.

Take B2: the competition rate was 12.6%.

Consider B3, for which the competition rate was 11.4%.

Take B4: the competition rate was 10.9%.

For B5, the competition rate stood at 11.1%.

For the molecule B6, the competition rate was found to be 9.4%.

Another assay concerns the target T2, human MSLN-FL-his protein. Briefly: competitive ELISA; row F8-8.22.
Protocol: as §1, §2
As to B1, the competition rate is 24.9%.

In the case of B2, the competition rate was found to be 92.2%.

For the molecule B3, the competition rate worked out at 94%.

Turning to B4, the competition rate is 94.4%.

B5: the competition rate was found to be 88.4%.

In the case of B6, the competition rate stood at 96%.

Another assay has as its target T2, human MSLN-FL-his protein. Briefly: competitive ELISA; row F8-22.23.
Protocol: as §1, §2
As to B1, the competition rate amounted to 38.6%.

Take B2: the competition rate is 96.1%.

For B3, the competition rate came out at 95.7%.

Turning to B4, the competition rate amounted to 96.6%.

On to B5, for which the competition rate was determined as 88.5%.

Consider B6, for which the competition rate is 96.6%.

Another assay has as its target T2, human MSLN-FL-his protein. Briefly: competitive ELISA; row F8-9.16.
Protocol: as §1, §2
On to B1, for which the competition rate was -39.8%.

Regarding B2, the competition rate is -52.1%.

Consider B3, for which the competition rate was -158%.

B4: the competition rate was -113%.

With B5, the competition rate is -37.3%.

As to B6, the competition rate was -89.6%.

A further assay concerns the target T2, human MSLN-FL-his protein. Kind of assay: competitive ELISA; row F8-32.3.
Protocol: as §1, §2
Turning to B1, the competition rate is 22.9%.

B2: the competition rate came to 77.7%.

As to B3, the competition rate is 85.4%.

As to B4, the competition rate was 79.3%.

For the molecule B5, the competition rate came out at 75.8%.

B6: the competition rate was determined as 84.9%.
